Ends that are not written are not given here. * marks the point of attachment. For = O=C*
Target: the molecule itself
Assay: SEC; 100 µg/ml PSMα3-FITC on Superdex 200 10/300GL equilibrated with PBS; OD492 nm

B1: FITC-labeled PSMα3 (peptide)
peptide: For-MEFVAKLFKFFKDLLGKFLGNN
modifications: also: FITC label, site not given here
notes: labeled by incubating 1 mg/ml PSMα3 with 100 µg/ml FITC in 0.1 M sodium carbonate buffer pH 9.6; also called PSMα3-FITC
- binding result: binds

From PMC3310821, “Inactivation of Staphylococcal Phenol Soluble Modulins by Serum Lipoprotein Particles” (PLoS Pathogens, 2012)
